According to the MegaScale stability set (Tsuboyama et al. 2023):

B1: r11_951_TrROS_Hall (parent)
chain: KKKYVIKVYFEDTGKEVEIEAESKEEALEAAKRLAEELGLKIKKVEIYP

Variants of: B1
Assay: folding stability dG (cDNA display proteolysis); higher = more stable
Conditions: PBS, room temperature

First: K2V
Second: K2D
The “folding stability dG” value of the first is higher: 4.34 kcal/mol for the first, 3.85 kcal/mol for the second.

Going from K2W to K2Y, the “folding stability dG” value falls from 4.66 kcal/mol to 4.42 kcal/mol.

First: K2F
Second: Y48N
The “folding stability dG” value of the first is higher: 4.57 kcal/mol for the first, 4.45 kcal/mol for the second.

First: Y48P
Second: Y48A
The “folding stability dG” value of the first is lower: 4.09 kcal/mol for the first, 4.25 kcal/mol for the second.

First: Y48M
Second: V45E
The “folding stability dG” value of the first is higher: 4.4 kcal/mol for the first, 3.18 kcal/mol for the second.

Going from V45C to V45L, the “folding stability dG” value falls from 4.16 kcal/mol to 4.08 kcal/mol.

Going from V45G to L38M, the “folding stability dG” value rises from 2.79 kcal/mol to 4.56 kcal/mol.

First: L38P
Second: L38I
The “folding stability dG” value of the first is lower: 2.86 kcal/mol for the first, 4.29 kcal/mol for the second.

First: L38F
Second: K32H
The “folding stability dG” value of the first is lower: 4.42 kcal/mol for the first, 4.55 kcal/mol for the second.

Going from K32Y to I42Y, the “folding stability dG” value falls from 4.9 kcal/mol to 3.75 kcal/mol.

Going from I42F to I42H, the “folding stability dG” value falls from 4.01 kcal/mol to 2.67 kcal/mol.

Compared with I42S, I42N is lower in “folding stability dG” value: 2.64 kcal/mol for the first, 2.55 kcal/mol for the second.

Going from I47G to I47H, the “folding stability dG” value rises from 4.06 kcal/mol to 4.35 kcal/mol.

Going from I47R to K44S, the “folding stability dG” value rises from 3.79 kcal/mol to 4.42 kcal/mol.

Going from K44W to K44G, the “folding stability dG” value falls from 4.24 kcal/mol to 4.12 kcal/mol.

Compared with K44E, G14T is higher in “folding stability dG” value: 4.25 kcal/mol for the first, 4.41 kcal/mol for the second.

First: G14E
Second: G14W
The “folding stability dG” value of the first is lower: 4.3 kcal/mol for the first, 4.61 kcal/mol for the second.

First: G14N
Second: T13S
The “folding stability dG” value of the first is lower: 4.43 kcal/mol for the first, 4.55 kcal/mol for the second.

First: T13H
Second: V8R
The “folding stability dG” value of the first is higher: 4.33 kcal/mol for the first, 0.173 kcal/mol for the second.

Compared with V8M, V8C is lower in “folding stability dG” value: 4.28 kcal/mol for the first, 3.91 kcal/mol for the second.

Going from E16L to E16A, the “folding stability dG” value rises from 4.29 kcal/mol to 4.49 kcal/mol.

Going from E16V to E16S, the “folding stability dG” value rises from 4.16 kcal/mol to 4.38 kcal/mol.

Going from E16Q to E16P, the “folding stability dG” value rises from 4.2 kcal/mol to 4.21 kcal/mol.

Compared with V17L, V17P is lower in “folding stability dG” value: 4.42 kcal/mol for the first, 3.58 kcal/mol for the second.

Compared with V17W, V17I is lower in “folding stability dG” value: 4.53 kcal/mol for the first, 4.4 kcal/mol for the second.

First: A27K
Second: A27V
The “folding stability dG” value of the first is lower: 1.74 kcal/mol for the first, 4.38 kcal/mol for the second.

Compared with A27Q, A27D is lower in “folding stability dG” value: 2.23 kcal/mol for the first, 1.49 kcal/mol for the second.

Going from A27G to A27T, the “folding stability dG” value falls from 4.68 kcal/mol to 3.58 kcal/mol.

Compared with A27P, K41R is higher in “folding stability dG” value: 2.74 kcal/mol for the first, 4.62 kcal/mol for the second.

Compared with K41I, K41A is higher in “folding stability dG” value: 4.19 kcal/mol for the first, 4.33 kcal/mol for the second.

Compared with G39I, G39L is higher in “folding stability dG” value: 3.67 kcal/mol for the first, 4.06 kcal/mol for the second.

First: G39H
Second: G39W
The “folding stability dG” value of the first is higher: 4.31 kcal/mol for the first, 3.5 kcal/mol for the second.

Compared with G39T, G39D is lower in “folding stability dG” value: 4 kcal/mol for the first, 3.99 kcal/mol for the second.

Going from E25G to E25W, the “folding stability dG” value rises from 4.15 kcal/mol to 4.25 kcal/mol.

Compared with E25K, E25C is higher in “folding stability dG” value: 4.22 kcal/mol for the first, 4.28 kcal/mol for the second.

Going from E25A to E36K, the “folding stability dG” value rises from 4.4 kcal/mol to 4.54 kcal/mol.

Compared with E36S, A21D is lower in “folding stability dG” value: 4.53 kcal/mol for the first, 3.72 kcal/mol for the second.

Going from A21C to R33L, the “folding stability dG” value rises from 4.07 kcal/mol to 4.23 kcal/mol.

First: R33A
Second: R33Q
The “folding stability dG” value of the first is higher: 4.04 kcal/mol for the first, 4.02 kcal/mol for the second.

Going from I19M to I19V, the “folding stability dG” value falls from 4.5 kcal/mol to 4.19 kcal/mol.

Going from I19G to L40P, the “folding stability dG” value falls from 3.31 kcal/mol to 3.02 kcal/mol.

Compared with L40G, L40K is higher in “folding stability dG” value: 3.56 kcal/mol for the first, 3.93 kcal/mol for the second.

Going from L40F to E11K, the “folding stability dG” value rises from 4.6 kcal/mol to 4.64 kcal/mol.

Going from E11L to E11H, the “folding stability dG” value falls from 4.92 kcal/mol to 4.83 kcal/mol.

Compared with E11Q, A31W is lower in “folding stability dG” value: 4.79 kcal/mol for the first, 4.25 kcal/mol for the second.

Going from A31H to I6Q, the “folding stability dG” value falls from 2.62 kcal/mol to 1.59 kcal/mol.

Going from I6D to I6R, the “folding stability dG” value rises from 0.044 kcal/mol to 0.95 kcal/mol.

Going from I6S to L28C, the “folding stability dG” value rises from 3.42 kcal/mol to 4.12 kcal/mol.

Going from L28H to P49C, the “folding stability dG” value rises from 4.44 kcal/mol to 4.52 kcal/mol.

Compared with P49G, P49H is higher in “folding stability dG” value: 4.49 kcal/mol for the first, 4.93 kcal/mol for the second.

Compared with P49K, P49N is higher in “folding stability dG” value: 4.5 kcal/mol for the first, 4.68 kcal/mol for the second.

Going from P49D to K24I, the “folding stability dG” value falls from 4.59 kcal/mol to 4.52 kcal/mol.

First: K24T
Second: E22A
The “folding stability dG” value of the first is higher: 4.57 kcal/mol for the first, 4.36 kcal/mol for the second.

Compared with E22D, E22Q is lower in “folding stability dG” value: 4.26 kcal/mol for the first, 4.11 kcal/mol for the second.

Compared with E22V, K3G is lower in “folding stability dG” value: 4.29 kcal/mol for the first, 4.03 kcal/mol for the second.

First: K3C
Second: K3A
The “folding stability dG” value of the first is lower: 4.24 kcal/mol for the first, 4.46 kcal/mol for the second.

Compared with K3F, E26Y is higher in “folding stability dG” value: 4.64 kcal/mol for the first, 4.83 kcal/mol for the second.

First: K7H
Second: K7T
The “folding stability dG” value of the first is higher: 4.19 kcal/mol for the first, 4.07 kcal/mol for the second.

First: K7Y
Second: L34M
The “folding stability dG” value of the first is lower: 4.13 kcal/mol for the first, 4.55 kcal/mol for the second.

Going from L34R to L34S, the “folding stability dG” value falls from 4.32 kcal/mol to 4.01 kcal/mol.

Going from D12Y to D12P, the “folding stability dG” value falls from 4.66 kcal/mol to 4.35 kcal/mol.

Compared with D12H, D12L is higher in “folding stability dG” value: 4.49 kcal/mol for the first, 4.59 kcal/mol for the second.

Going from D12R to A35G, the “folding stability dG” value falls from 4.79 kcal/mol to 4.25 kcal/mol.

First: A35F
Second: A35K
The “folding stability dG” value of the first is higher: 4.13 kcal/mol for the first, 3.58 kcal/mol for the second.

Going from A35T to A30F, the “folding stability dG” value rises from 3.84 kcal/mol to 4.66 kcal/mol.

First: A30N
Second: A30R
The “folding stability dG” value of the first is lower: 4.41 kcal/mol for the first, 4.58 kcal/mol for the second.

Going from E46L to E46N, the “folding stability dG” value falls from 4.38 kcal/mol to 4.19 kcal/mol.

First: E46D
Second: E46H
The “folding stability dG” value of the first is lower: 4.38 kcal/mol for the first, 4.53 kcal/mol for the second.

Compared with E46W, E46Y is higher in “folding stability dG” value: 4.47 kcal/mol for the first, 4.61 kcal/mol for the second.

Going from E46K to K15E, the “folding stability dG” value rises from 4.22 kcal/mol to 4.35 kcal/mol.

Compared with K15M, Y4I is higher in “folding stability dG” value: 4.16 kcal/mol for the first, 4.29 kcal/mol for the second.

Compared with Y4W, E20H is higher in “folding stability dG” value: 4.31 kcal/mol for the first, 4.42 kcal/mol for the second.

Going from E20S to E18K, the “folding stability dG” value falls from 4.22 kcal/mol to 4.07 kcal/mol.

Going from E18Y to V5G, the “folding stability dG” value falls from 4.12 kcal/mol to 3.95 kcal/mol.

First: V5F
Second: S23C
The “folding stability dG” value of the first is higher: 4.42 kcal/mol for the first, 4.05 kcal/mol for the second.

First: S23R
Second: S23G
The “folding stability dG” value of the first is lower: 4 kcal/mol for the first, 4.06 kcal/mol for the second.

Compared with S23M, S23A is higher in “folding stability dG” value: 3.83 kcal/mol for the first, 4.08 kcal/mol for the second.

First: F10C
Second: F10R
The “folding stability dG” value of the first is higher: 3.67 kcal/mol for the first, 1.98 kcal/mol for the second.

First: F10T
Second: F10Y
The “folding stability dG” value of the first is lower: 3.32 kcal/mol for the first, 3.94 kcal/mol for the second.

F10A and F10V are the same in “folding stability dG” value: 2.98 kcal/mol for the first, 2.98 kcal/mol for the second.

Compared with E37M, E37G is lower in “folding stability dG” value: 4.67 kcal/mol for the first, 4.55 kcal/mol for the second.

First: E37S
Second: Y9P
The “folding stability dG” value of the first is higher: 4.71 kcal/mol for the first, 1.42 kcal/mol for the second.

Compared with Y9R, Y9V is higher in “folding stability dG” value: 4.14 kcal/mol for the first, 4.3 kcal/mol for the second.

With Y9M the “folding stability dG” value was 4.4 kcal/mol.
